# According to article PMC3056663, “A Bi-Functional Anti-Thrombosis Protein Containing Both Direct-Acting Fibrin(ogen)olytic and Plasminogen-Activating Activities” (PLoS ONE, 2011):
# B1: native eupolytin1 (NE) (Eupolyphaga sinensis) (protein)
# chain: RIVGGSDANIEDLPYQLSFEYGGSHMCGASIISENWVVTAAHCVDGVSASSARFRAGSSVRGSGGSLHQATQLIANPQYDYYTIDYDVAVARVATPFSYGSGVQPISLISVEPSAGQTATVSGWGTFFSGGSLPRQLQVVSVPIVSPQQCNNDYASYGGITENMICAAEEQGGKDPCQGDSSGPLTVGGQLAGIVSWGAGCAQRGYPGVYSNVATLRKFITDETGVN
# notes: mature protein of 227 residues, 27-residue signal peptide removed (precursor 254); purified natively from mid-gut; 26 kDa on SDS-PAGE
# B2: recombinant eupolytin1 (RE) (Eupolyphaga sinensis) (protein)
# chain: IVGGSDANIEDLPYQLSFEYGGSHMCGASIISENWVVTAAHCVDGVSASSARFRAGSSVRGSGGSLHQATQLIANPQYDYYTIDYDVAVARVATPFSYGSGVQPISLISVEPSAGQTATVSGWGTFFSGGSLPRQLQVVSVPIVSPQQCNNDYASYGGITENMICAAEEQGGKDPCQGDSSGPLTVGGQLAGIVSWGAGCAQRGYPGVYSNVATLRKFITDETGVN
# notes: tag released by enterokinase; primer encodes DDDDK-IVGG at the cleavage site; Mono Q purified
# Substrate: N=C(N)NCCC[C@H](NC(=O)c1ccccc1)C(=O)Nc1ccc([N+](=O)[O-])cc1
# Assay: purified protein
# Type: biochemical, Eupolyphaga sinensis
# Conditions: 50 mM Tris-HCl, pH 7.8, 37°C
Protein,Km [mM],Vmax [µM/min],kcat/Km [M⁻¹ s⁻¹]
B1,3.24,63000,1e+07
B2,3.01,67200,8e+06
